Assay results from patent publication US20120172293A1 (Takeda / Millennium, published 2012).
Non-standard residues stand in square brackets, D forms with d. *: point of attachment. X4 = ((1S)-1-Carboxy-3-methylbutyl)carbamoyl, CC(C)C[C@H](NC(=O)*)C(=O)O; X10 = Tetrahydro‑2H‑pyran‑4‑yl‑carbamoyl, O=C(NC1CCOCC1)*; 4‑guanidinomethylbenzoyl = N=C(N)NCc1ccc(C(=O)*)cc1; Arg(Me) = CNC(=N)NCCC[C@H](N)C(=O)O; hArg = N=C(N)NCCCC[C@H](N)C(=O)O; tBuAla = CC(C)(C)C[C@H](N)C(=O)O; 4Pal = N[C@@H](Cc1ccncc1)C(=O)O; d(pGlu) = O=C1CC[C@H](C(=O)O)N1; Cha = N[C@@H](CC1CCCCC1)C(=O)O; Iva = CC[C@](C)(N)C(=O)O; Aib = CC(C)(N)C(=O)O

Legend:
[1] = target: human Y2 receptor (human) (UniProt P49146); assay: cell-based or functional assay
Chain of human Y2 receptor (human) (P49146 whole entry): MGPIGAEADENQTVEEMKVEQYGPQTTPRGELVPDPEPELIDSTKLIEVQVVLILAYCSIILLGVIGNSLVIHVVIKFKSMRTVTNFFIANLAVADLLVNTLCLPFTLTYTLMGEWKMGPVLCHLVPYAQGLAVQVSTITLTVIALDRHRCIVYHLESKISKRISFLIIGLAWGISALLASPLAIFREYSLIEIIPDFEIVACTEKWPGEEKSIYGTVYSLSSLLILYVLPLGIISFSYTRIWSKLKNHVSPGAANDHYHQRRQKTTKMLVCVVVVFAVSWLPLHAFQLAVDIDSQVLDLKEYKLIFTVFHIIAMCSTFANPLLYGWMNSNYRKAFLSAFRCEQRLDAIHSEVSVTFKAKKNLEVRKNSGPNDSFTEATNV

[2] = target: human Y2 receptor (human) (UniProt P49146); assay: RBA: displacement of [125I]-PYY from hY2R/CHO membranes

Row | GBA EC50 Ratio ([35S]GTPγS binding) (EC50 compound/EC50 PYY(3-36)) [1] | IC50 Ratio (IC50 compound/IC50 PYY(3-36)) [2] | Binder
1 | 1 | 1.2 | Ac-LS[dP]R[4Pal][Cha][Aib]NK[Aib]TRQR[Cha]-NH2 (SMILES CC(=O)N[C@@H](CC(C)C)C(=O)N[C@@H](CO)C(=O)N1CCC[C@@H]1C(=O)N[C@@H](CCCNC(=N)N)C(=O)N[C@@H](Cc1ccncc1)C(=O)N[C@@H](CC1CCCCC1)C(=O)NC(C)(C)C(=O)N[C@@H](CC(N)=O)C(=O)N[C@@H](CCCCN)C(=O)NC(C)(C)C(=O)N[C@H](C(=O)N[C@@H](CCCNC(=N)N)C(=O)N[C@@H](CCC(N)=O)C(=O)N[C@@H](CCCNC(=N)N)C(=O)N[C@@H](CC1CCCCC1)C(N)=O)[C@@H](C)O) [Ac-[Leu22, D-Pro24, Pya(4)26, Cha27,36, Aib28,31, Lys30]-PYY(22-36)]
2 | 2.8 | 6.3 | {4‑guanidinomethylbenzoyl}-[Iva]H[Cha][Aib]NK[Aib]TRQR[Cha]-NH2 (SMILES CC[C@](C)(NC(=O)c1ccc(CNC(=N)N)cc1)C(=O)N[C@@H](Cc1c[nH]cn1)C(=O)N[C@@H](CC1CCCCC1)C(=O)NC(C)(C)C(=O)N[C@@H](CC(N)=O)C(=O)N[C@@H](CCCCN)C(=O)NC(C)(C)C(=O)N[C@H](C(=O)N[C@@H](CCCNC(=N)N)C(=O)N[C@@H](CCC(N)=O)C(=O)N[C@@H](CCCNC(=N)N)C(=O)N[C@@H](CC1CCCCC1)C(N)=O)[C@@H](C)O) [4-Guanidinomethylbenzoyl-[Iva25, Cha27,36, Aib28,31, Lys30]-PYY(25-36)]
3 | 0.89 | 1.2 | Ac-FS[dP]R[4Pal][Cha][Aib]NK[Aib]TRQR[Cha]-NH2 (SMILES CC(=O)N[C@@H](Cc1ccccc1)C(=O)N[C@@H](CO)C(=O)N1CCC[C@@H]1C(=O)N[C@@H](CCCNC(=N)N)C(=O)N[C@@H](Cc1ccncc1)C(=O)N[C@@H](CC1CCCCC1)C(=O)NC(C)(C)C(=O)N[C@@H](CC(N)=O)C(=O)N[C@@H](CCCCN)C(=O)NC(C)(C)C(=O)N[C@H](C(=O)N[C@@H](CCCNC(=N)N)C(=O)N[C@@H](CCC(N)=O)C(=O)N[C@@H](CCCNC(=N)N)C(=O)N[C@@H](CC1CCCCC1)C(N)=O)[C@@H](C)O) [Ac-[Phe22, D-Pro24, Pya(4)26, Cha27,36, Aib28,31, Lys30]-PYY(22-36)]
4 | 1 | 1.1 | Ac-KS[dP]R[4Pal][Cha][Aib]NK[Aib]TRQR[Cha]-NH2 (SMILES CC(=O)N[C@@H](CCCCN)C(=O)N[C@@H](CO)C(=O)N1CCC[C@@H]1C(=O)N[C@@H](CCCNC(=N)N)C(=O)N[C@@H](Cc1ccncc1)C(=O)N[C@@H](CC1CCCCC1)C(=O)NC(C)(C)C(=O)N[C@@H](CC(N)=O)C(=O)N[C@@H](CCCCN)C(=O)NC(C)(C)C(=O)N[C@H](C(=O)N[C@@H](CCCNC(=N)N)C(=O)N[C@@H](CCC(N)=O)C(=O)N[C@@H](CCCNC(=N)N)C(=O)N[C@@H](CC1CCCCC1)C(N)=O)[C@@H](C)O) [Ac-[Lys22,30, D-Pro24, Pya(4)26, Cha27,36, Aib28,31]-PYY(22-36)]
5 | 1.6 | 1.1 | X10-E[dP]R[4Pal][Cha][Aib]NK[Aib]TRQR[Cha]-NH2 (SMILES C[C@@H](O)[C@H](NC(=O)C(C)(C)NC(=O)[C@H](CCCCN)NC(=O)[C@H](CC(N)=O)NC(=O)C(C)(C)NC(=O)[C@H](CC1CCCCC1)NC(=O)[C@H](Cc1ccncc1)NC(=O)[C@H](CCCNC(=N)N)NC(=O)[C@H]1CCCN1C(=O)[C@H](CCC(=O)O)NC(=O)NC1CCOCC1)C(=O)N[C@@H](CCCNC(=N)N)C(=O)N[C@@H](CCC(N)=O)C(=O)N[C@@H](CCCNC(=N)N)C(=O)N[C@@H](CC1CCCCC1)C(N)=O) [Tetrahydro-2H-pyran-4-yl-carbamoyl-[Glu23, D-Pro24, Pya(4)26, Cha27,36, Aib28,31, Lys30]-PYY(23-36)]
6 | 1.1 | 2 | [d(pGlu)]R[4Pal][Cha][Aib]NK[Aib]TRQR[Cha]-NH2 (SMILES C[C@@H](O)[C@H](NC(=O)C(C)(C)NC(=O)[C@H](CCCCN)NC(=O)[C@H](CC(N)=O)NC(=O)C(C)(C)NC(=O)[C@H](CC1CCCCC1)NC(=O)[C@H](Cc1ccncc1)NC(=O)[C@H](CCCNC(=N)N)NC(=O)[C@H]1CCC(=O)N1)C(=O)N[C@@H](CCCNC(=N)N)C(=O)N[C@@H](CCC(N)=O)C(=O)N[C@@H](CCCNC(=N)N)C(=O)N[C@@H](CC1CCCCC1)C(N)=O) [[D-pGlu24, Pya(4)26, Cha27,36, Aib28,31, Lys30]-PYY(24-36)]

Second part, the binder before the results:

Row | Binder | GBA EC50 Ratio ([35S]GTPγS binding) (EC50 compound/EC50 PYY(3-36)) [1] | IC50 Ratio (IC50 compound/IC50 PYY(3-36)) [2]
7 | X4-Q[dP]R[4Pal][Cha][Aib]NK[Aib]TRQR[Cha]-NH2 (not fully specified; printed as [(1S)-1-Carboxy-3-methylbutyl]carbamoyl-[Gln23, D-Pro24, Pya(4)26, Cha27,36, Aib28,31, Lys30]-PYY(23-36)) | 1.3 | 0.93
8 | Ac-S[dP]R[4Pal][Cha][Aib]NR[Aib]TRQR[Cha]-NH2 (SMILES CC(=O)N[C@@H](CO)C(=O)N1CCC[C@@H]1C(=O)N[C@@H](CCCNC(=N)N)C(=O)N[C@@H](Cc1ccncc1)C(=O)N[C@@H](CC1CCCCC1)C(=O)NC(C)(C)C(=O)N[C@@H](CC(N)=O)C(=O)N[C@@H](CCCNC(=N)N)C(=O)NC(C)(C)C(=O)N[C@H](C(=O)N[C@@H](CCCNC(=N)N)C(=O)N[C@@H](CCC(N)=O)C(=O)N[C@@H](CCCNC(=N)N)C(=O)N[C@@H](CC1CCCCC1)C(N)=O)[C@@H](C)O) [Ac-[D-Pro24, Pya(4)26, Cha27,36, Aib28,31, Arg30]-PYY(23-36)] | 1.8 | 1.1
9 | Ac-S[dP][Arg(Me)]H[Cha][Aib]NK[Aib]TRQR[Cha]-NH2 (SMILES CNC(=N)NCCC[C@H](NC(=O)[C@H]1CCCN1C(=O)[C@H](CO)NC(C)=O)C(=O)N[C@@H](Cc1c[nH]cn1)C(=O)N[C@@H](CC1CCCCC1)C(=O)NC(C)(C)C(=O)N[C@@H](CC(N)=O)C(=O)N[C@@H](CCCCN)C(=O)NC(C)(C)C(=O)N[C@H](C(=O)N[C@@H](CCCNC(=N)N)C(=O)N[C@@H](CCC(N)=O)C(=O)N[C@@H](CCCNC(=N)N)C(=O)N[C@@H](CC1CCCCC1)C(N)=O)[C@@H](C)O) [Ac-[D-Pro24, Arg(Me)25, Cha27,36, Aib28,31, Lys30]-PYY(23-36)] | 1.8 | 1.8
10 | Ac-S[dP][hArg]H[Cha][Aib]NK[Aib]TRQR[Cha]-NH2 (SMILES CC(=O)N[C@@H](CO)C(=O)N1CCC[C@@H]1C(=O)N[C@@H](CCCCNC(=N)N)C(=O)N[C@@H](Cc1c[nH]cn1)C(=O)N[C@@H](CC1CCCCC1)C(=O)NC(C)(C)C(=O)N[C@@H](CC(N)=O)C(=O)N[C@@H](CCCCN)C(=O)NC(C)(C)C(=O)N[C@H](C(=O)N[C@@H](CCCNC(=N)N)C(=O)N[C@@H](CCC(N)=O)C(=O)N[C@@H](CCCNC(=N)N)C(=O)N[C@@H](CC1CCCCC1)C(N)=O)[C@@H](C)O) [Ac-[D-Pro24, Har25, Cha27,36, Aib28,31, Lys30]-PYY(23-36)] | 2.7 | 1.2
11 | Ac-S[dP]K(Ac)[4Pal][Cha][Aib]NK[Aib]TRQR[Cha]-NH2 (SMILES CC(=O)NCCCC[C@H](NC(=O)[C@H]1CCCN1C(=O)[C@H](CO)NC(C)=O)C(=O)N[C@@H](Cc1ccncc1)C(=O)N[C@@H](CC1CCCCC1)C(=O)NC(C)(C)C(=O)N[C@@H](CC(N)=O)C(=O)N[C@@H](CCCCN)C(=O)NC(C)(C)C(=O)N[C@H](C(=O)N[C@@H](CCCNC(=N)N)C(=O)N[C@@H](CCC(N)=O)C(=O)N[C@@H](CCCNC(=N)N)C(=O)N[C@@H](CC1CCCCC1)C(N)=O)[C@@H](C)O) [Ac-[D-Pro24, Lys(Ac)25, Pya(4)26, Cha27,36, Aib28,31, Lys30]-PYY(23-36)] | 4.2 | 6.6
12 | Ac-[dP]R[4Pal][Cha][Aib]NK[Aib]TRQR[Cha]-NH2 (SMILES CC(=O)N1CCC[C@@H]1C(=O)N[C@@H](CCCNC(=N)N)C(=O)N[C@@H](Cc1ccncc1)C(=O)N[C@@H](CC1CCCCC1)C(=O)NC(C)(C)C(=O)N[C@@H](CC(N)=O)C(=O)N[C@@H](CCCCN)C(=O)NC(C)(C)C(=O)N[C@H](C(=O)N[C@@H](CCCNC(=N)N)C(=O)N[C@@H](CCC(N)=O)C(=O)N[C@@H](CCCNC(=N)N)C(=O)N[C@@H](CC1CCCCC1)C(N)=O)[C@@H](C)O) [Ac-[D-Pro24, Pya(4)26, Cha27,36, Aib28,31, Lys30]-PYY(24-36)] | 0.56 | 0.68
13 | X4-E[dP]R[4Pal][Cha][Aib]NK[Aib]TRQR[Cha]-NH2 (SMILES CC(C)C[C@H](NC(=O)N[C@@H](CCC(=O)O)C(=O)N1CCC[C@@H]1C(=O)N[C@@H](CCCNC(=N)N)C(=O)N[C@@H](Cc1ccncc1)C(=O)N[C@@H](CC1CCCCC1)C(=O)NC(C)(C)C(=O)N[C@@H](CC(N)=O)C(=O)N[C@@H](CCCCN)C(=O)NC(C)(C)C(=O)N[C@H](C(=O)N[C@@H](CCCNC(=N)N)C(=O)N[C@@H](CCC(N)=O)C(=O)N[C@@H](CCCNC(=N)N)C(=O)N[C@@H](CC1CCCCC1)C(N)=O)[C@@H](C)O)C(=O)O) | 2.5 | 2.2
14 | Ac-S[dP][Iva][4Pal][Cha][tBuAla]NK[Aib]TRQR[Cha]-NH2 (SMILES CC[C@](C)(NC(=O)[C@H]1CCCN1C(=O)[C@H](CO)NC(C)=O)C(=O)N[C@@H](Cc1ccncc1)C(=O)N[C@@H](CC1CCCCC1)C(=O)N[C@@H](CC(C)(C)C)C(=O)N[C@@H](CC(N)=O)C(=O)N[C@@H](CCCCN)C(=O)NC(C)(C)C(=O)N[C@H](C(=O)N[C@@H](CCCNC(=N)N)C(=O)N[C@@H](CCC(N)=O)C(=O)N[C@@H](CCCNC(=N)N)C(=O)N[C@@H](CC1CCCCC1)C(N)=O)[C@@H](C)O) [Ac-[D-Pro24, Iva25, Pya(4)26, Cha27,36, Leu(Me)28, Lys30, Aib31]-PYY(23-36)] | 1.2 | 0.76
